Laboratory results as given in patent US20260242478A1 (published 2026).
Where no end group is shown, it is not given here.

B1: Phage-1875 (peptide)
peptide: FVPWCIPAWMCAEN
modifications: cysteine pairing not given here; also: displayed on phage as pIII fusion, pIII sequence and linker not given here
B2: Phage-1884 (peptide)
peptide: MVMRCQPEWMCTGI
notes: tested as crude clonal phage supernatant
B3: Phage-1878 (peptide)
peptide: VEILCKPKWMCEFW
notes: as for B2
B4: Phage-1890 (peptide)
peptide: AIKWCIPSWMCVED
notes: tested as crude clonal phage supernatant; also called AIKWCIPSWMCVED
B5: Phage-1886 (peptide)
peptide: WEKWCIPAWMCVAD
notes: as for B2
B6: Phage-1879 (peptide)
peptide: SLHWCIPAWMCDFV
notes: as for B2
B7: Phage-1880 (peptide)
peptide: VLMLCKPAWMCMGF
notes: as for B2
B8: Phage-1883 (peptide)
peptide: VNKLCTPEWMCVGM
notes: as for B2
B9: Phage-1885 (peptide)
peptide: FAKWCIPEWMCSVS
notes: as for B2
B10: Phage-1877 (peptide)
peptide: IERWCIPDWMCHVW
notes: as for B2
B11: Phage-1888 (peptide)
peptide: WSNWCTPEWMCVGF
notes: as for B2
B12: Phage-1887 (peptide)
peptide: LDHWCFPMWMCTGF
notes: as for B2
B13: Phage-1882 (peptide)
peptide: VTPWCTPSWMCFGF
notes: as for B2
B14: Phage-1876 (peptide)
peptide: VVKLCIPEWMCAEW
modifications: cysteine pairing not given here; also: displayed on phage as pIII fusion, pIII sequence and linker not given here
notes: as for B2
B15: Phage-1881 (peptide)
peptide: LEKWCTPAWMCEML
notes: as for B2
B16: Phage-1889 (peptide)
peptide: DVMWCKPSWMCDWL
notes: as for B2
B17: Phage-1856 (peptide)
peptide: MGNWCIPTWMCTGF
modifications: cysteine pairing not given here; also: displayed on phage as pIII fusion, pIII and linker sequences not given here
notes: Clone of the Peptide-180 library
B18: Phage-1858 (peptide)
peptide: VDKWCTPIWMCEGF
modifications: cysteine pairing not given here; also: displayed on phage as pIII fusion, pIII and linker sequences not given here
notes: as for B17
B19: Phage-1857 (peptide)
peptide: VMKWCIPSWMCSQD
modifications: cysteine pairing not given here; also: displayed on phage as pIII fusion, pIII and linker sequences not given here
notes: as for B17
B20: Phage-1859 (peptide)
peptide: VEKWCVPTWMCDWV
modifications: cysteine pairing not given here; also: displayed on phage as pIII fusion, pIII and linker sequences not given here
notes: as for B17
B21: Phage-1860 (peptide)
peptide: GDNWCKPEWMCIGF
modifications: cysteine pairing not given here; also: displayed on phage as pIII fusion, pIII and linker sequences not given here
notes: as for B17
B22: Phage-1892 (peptide)
peptide: VPKLCTPVWMCTGF
modifications: cysteine pairing not given here; also: fused to phage pIII, sequence and linker not given here
notes: Peptide-180 library clone, tested as clonal phage supernatant; not shown: pIII of the bacteriophage to which the peptide is fused
B23: Phage-1891 (peptide)
peptide: LEKWCIPAWMCEWS
modifications: cysteine pairing not given here; also: fused to phage pIII, sequence and linker not given here
notes: as for B22

Target: T1, Anti-PSMA Fab (SEQ ID NOs: 19, 20)
T1 construct: Biotinylated PSMA Fab captured on neutravidin coated plates in the phage ELISA; also called 006 PSMA Fab
Test: phage binding ELISA; biotinylated anti-PSMA Fab on neutravidin plate, bound phage detected with anti-M13-HRP
Method: (§1) Clonal phage were harvested as crude supernatants and screened via standard ELISAs. […] Prior to the addition of clonal phage. wells were incubated with blocking buffer and PSMA antigen or blocking buffer alone. Without washing or aspirating, clonal phage supernatants were then added to the wells and incubated for a short time. Wells were then washed followed by detection of bound phage using a horse radish conjugated anti-M13 antibody.

Binder | Anti-PSMA Fab (SEQ ID NOs: 19, 20) signal
VEHWCIPAWMCEWM [Phage-1873] | 2.09
WENRCTPAWMCKGF [Phage-1867] | 2.12
MEKLCKPAWMCSML [Phage-1868] | 2.11
DFRWCIPEWMCTGY [Phage-1863] | 2.14
LDKWCIPEWMCFDY [Phage-1862] | 2.14
SIKMCIPQWMCVMQ [Phage-1869] | 2.11
EITRCIPAWMCDFW [Phage-1865] | 2.13
VMKWCIPEWMCQHT [Phage-1872] | 2.09
EFIWCRPAWMCMDV [Phage-1870] | 2.11
HVKWCIPAWMCEAS [Phage-1871] | 2.1
IMKWCIPEWMCYFF [Phage-1864] | 2.14
B1 | 2.08
WEHWCRPAWMCESL [Phage-1866] | 2.12
SPKWCTPEWMCSHL [Phage-1874] | 2.09
AVKLCIPEWMCVGQ [Phage-1861] | 2.15

Target: T2, Anti-PSMA Fab (SEQ ID NOs: 19, 20)
T2 construct: In the panning ELISA the Fab was biotinylated and captured on neutravidin coated plates; also called 006 PSMA Fab
Test: phage binding ELISA; biotinylated PSMA Fab on neutravidin plate pre-incubated with PSMA antigen (competitor), anti-M13 HRP detection;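 also: competition ELISA where clonal phage supernatants were added to wells preincubated with PSMA antigen or with blocking buffer only as control, bound phage read via HRP-coupled anti-M13 antibody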
Method: as §1

Binder | Anti-PSMA Fab signal in the presence of PSMA
B2 | 0.122
B3 | 0.109
B4 | 0.0876
B5 | 0.134
B6 | 0.185
B7 | 0.375
B8 | 0.0609
B9 | 0.119
B10 | 0.126
B11 | 0.0814
B12 | 0.233
B13 | 0.072
B14 | 0.115
B15 | 0.0814
B16 | 0.127

Target: T1, Anti-PSMA Fab (SEQ ID NOs: 19, 20)
Test: phage binding ELISA on captured anti-PSMA Fab; competitor: PSMA antigen pre-incubated in the wells
Method: as §1

Binder | Anti-PSMA Fab signal in the presence of PSMA
VEHWCIPAWMCEWM [Phage-1873] | 0.12
WENRCTPAWMCKGF [Phage-1867] | 0.0837
MEKLCKPAWMCSML [Phage-1868] | 0.0627
DFRWCIPEWMCTGY [Phage-1863] | 0.11
LDKWCIPEWMCFDY [Phage-1862] | 0.0678
SIKMCIPQWMCVMQ [Phage-1869] | 0.179
EITRCIPAWMCDFW [Phage-1865] | 0.081
VMKWCIPEWMCQHT [Phage-1872] | 0.199
EFIWCRPAWMCMDV [Phage-1870] | 0.0681
HVKWCIPAWMCEAS [Phage-1871] | 0.0972
IMKWCIPEWMCYFF [Phage-1864] | 0.1
B1 | 0.111
WEHWCRPAWMCESL [Phage-1866] | 0.134
SPKWCTPEWMCSHL [Phage-1874] | 0.127
AVKLCIPEWMCVGQ [Phage-1861] | 0.0676

Target: T3, Anti-PSMA Fab (SEQ ID NOs: 19, 20)
T3 construct: In the phage ELISA the Fab was biotinylated and captured on neutravidin coated plates; also called 006 PSMA Fab
Test: phage ELISA; biotinylated PSMA Fab on neutravidin plate, clonal phage supernatant, anti-M13 HRP detection;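 also: wells preincubated with PSMA antigen in blocking buffer or with blocking buffer only before clonal phage were added for a short incubation, then bound phage detected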
Method: as §1

Binder | Phage binding ELISA, Anti-PSMA Fab signal
B17 | 2.16
B18 | 2.16
B19 | 2.16
B20 | 2.16
B21 | 2.16

Target: T2, Anti-PSMA Fab (SEQ ID NOs: 19, 20)
Test: phage binding ELISA; biotinylated PSMA Fab on neutravidin plate, clonal phage supernatant, anti-M13 HRP detection;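 also: wells were preincubated with blocking buffer either containing PSMA antigen or without it before crude phage supernatant was added, briefly incubated, then washed prior to detection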
Method: as §1

Binder | Anti-PSMA Fab (SEQ ID NOs: 19, 20) signal
B2 | 2.06
B3 | 2.07
B4 | 2.04
B5 | 2.05
B6 | 2.07
B7 | 2.07
B8 | 2.06
B9 | 2.06
B10 | 2.08
B11 | 2.05
B12 | 2.05
B13 | 2.06
B14 | 2.08
B15 | 2.06
B16 | 2.04

Target: T4, Anti-PSMA Fab (SEQ ID NOs: 19, 20)
T4 construct: Biotinylated and captured on neutravidin coated plates in the phage ELISA; also called 006 PSMA Fab
Test: phage binding ELISA; biotinylated PSMA Fab on neutravidin plate, bound phage detected with anti-M13 HRP
Method: as §1

Binder | Anti-PSMA Fab (SEQ ID NOs: 19, 20) signal
B22 | 2.04
B23 | 2.04

Target: T3, Anti-PSMA Fab (SEQ ID NOs: 19, 20)
Test: phage ELISA; PSMA Fab on plate pre-incubated with PSMA antigen as competitor, anti-M13 HRP detection;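 also: crude clonal phage supernatants added to Fab-coated wells still holding PSMA antigen in blocking buffer, with bound phage as read-out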
Method: as §1

Binder | Phage binding ELISA, Anti-PSMA Fab signal in the presence of PSMA
B17 | 0.162
B18 | 0.0951
B19 | 0.165
B20 | 0.0833
B21 | 0.0978

Target: T4, Anti-PSMA Fab (SEQ ID NOs: 19, 20)
Test: phage binding ELISA on captured PSMA Fab; competitor PSMA antigen pre-incubated in the well
Method: as §1

Binder | Anti-PSMA Fab signal in the presence of PSMA
B22 | 0.0783
B23 | 0.113
